Experimental data published in publication PMC6391317.

Experiments:
[1] = target: T1, thrombin (alpha-thrombin) (human, UniProt P00734;P00734 328-363;364-622); assay: capillary electrophoresis; simulated body plasma ionic buffer (SBP); exosite I; CE: 400 nM thrombin + 100 nM fluorescein-labeled aptamer in simulated body plasma ionic buffer (SBP; composition and pH not given in the material), 37 C for 2 m
[2] = target: T1, thrombin (alpha-thrombin); assay: capillary electrophoresis; simulated body plasma ionic buffer (SBP); exosite II; CE: 400 nM thrombin + 100 nM fluorescein-labeled aptamer in simulated body plasma ionic buffer (SBP; composition and pH not given in the material), 37 C for 2 m

Row | Binder | Kd [1] [nM] | Kd [2] [nM]
1 | GGTTGGTGTGGTTGG (structured_DNA) [HD1] | 258 | 
2 | AGTCCGTGGTAGGGCAGGTTGGGGTGACT (structured_DNA) [HD22] |  | 97.6
